Data reported in publication PMC9154124.

Molecular target: chimeric H5 Env: Env_(HXB2) with the V3 loop of Env_(SF162) (HIV-1 strain HXB2 | HIV-1 strain SF162) (UniProt P04578)

Substance: Human soluble CD4-183 (sCD4-183) two-domain protein (domain or fragment)
- inhibition by sCD4 of the infectivity of HIV-1 pseudotyped with Env (titration, Fig 3A); loss of potency against H4 Env: > 50 fold
- sCD4-induced gp120 shedding from Env-expressing HEK293T cells (Fig 3B); shift of the sCD4 dependence against H4 Env: > 10 fold
